The record followed here is publication PMC10439913.

Assay [1] concerns the target Domain-11 of human M6P/IGF2R (D11) (human) (UniProt P11717). Briefly: radioligand binding; competition of cold ligand with [125I]-monoiodotyrosyl-Tyr2-IGF2 for immobilized D11 (as in ref. 33); affinity relative to IGF2.
In assay [2] the target is IGF1 receptor (IGF1R) (human) (UniProt P08069). Briefly: radioligand binding; competition of cold ligand with [125I]-iodotyrosyl-IGF1 for human IGF-1R on R+39 mouse fibroblasts; one-site fit; affinity relative to IGF1.
The target of assay [3] is insulin receptor isoform A (IR-A) (human) (UniProt P06213). Briefly: radioligand binding; competition of cold ligand with [125I]-monoiodotyrosyl-TyrA14-insulin for human IR-A on whole IM-9 lymphocytes; one-site fit; affinity relative to human insulin.
The target of assay [4] is insulin receptor isoform B (IR-B) (human) (UniProt P06213). Description: radioligand binding; competition of cold ligand with [125I]-monoiodotyrosyl-TyrA14-insulin for human IR-B on transfected mouse fibroblasts; one-site fit; affinity relative to human insulin.
Assay [5] concerns the target mannose-6-phosphate/IGF2 receptor (M6P/IGF2R), native in R- cells (mouse (endogenous in R- cells)) (UniProt Q07113). Briefly: radioligand binding; competition of cold ligand (10^-12-10^-6 M) with [125I]-monoiodotyrosyl-Tyr2-IGF2 (43,000 cpm) for M6P/IGF2R on R- cells; 16 h at 5 °C, 100 mM HEPES pH 7.6, 100 mM NaCl, 1% BSA; affinity relative to IGF2.
Assay [6] has as its target IGFBP3:ALS complex, preformed on immobilized His-tagged ALS (UniProt P35858). Description: radioligand binding; competition of cold ligand (10^-12-10^-6 M) with [125I]-monoiodotyrosyl-Tyr2-IGF2 (43,000 cpm) for the IGFBP3:ALS complex immobilized through the His-tag of ALS; 16 h at 5 °C, HEPES pH 7.6; affinity relative to IGF2.
Assay [7] has as its target His-tagged IGFBP3 (UniProt P17936). Description: radioligand binding; competition of cold ligand (10^-12-10^-6 M) with [125I]-monoiodotyrosyl-Tyr2-IGF2 (43,000 cpm) for His-tagged IGFBP3 immobilized via neutravidin and Ni-NTA iBodies; 16 h at 5 °C, HEPES pH 7.6; affinity relative to IGF2.
Assay [8] deals with Domain-11 of human M6P/IGF2R (D11), C-terminally His-tagged (human) (UniProt P11717). Description: radioligand binding; competition of cold ligand with [125I]-monoiodotyrosyl-Tyr2-IGF2 for immobilized D11; Kd of the tracer 2 nM.
Assay [9] concerns the target human insulin receptor isoform A (IR-A) in human IM-9 lymphocytes (human) (UniProt P06213). Briefly: radioligand binding; competition of cold ligand with [125I]-monoiodotyrosyl-TyrA14-insulin on human IM-9 lymphocytes; Kd by one-site fit, Kd of the tracer 0.3 nM.
For assay [10], the target named is human IGF1 receptor in transfected mouse fibroblasts (R+39 cells) (human) (UniProt P08069). Description: radioligand binding; competition of cold ligand with [125I]-iodotyrosyl-IGF1 on R+39 cells (mouse fibroblasts with human IGF-1R); Kd by one-site fit, Kd of the tracer 0.2 nM.
For assay [11], the target named is human insulin receptor isoform B (IR-B) in transfected mouse fibroblasts (human) (UniProt P06213). Briefly: radioligand binding; competition of cold ligand with [125I]-monoiodotyrosyl-TyrA14-insulin on mouse fibroblasts transfected with human IR-B; Kd by one-site fit, Kd of the tracer 0.3 nM.
The target in assay [12] is native M6P/IGF2R in R- cells (mouse embryonic fibroblasts) (mouse (endogenous in R- cells)) (UniProt Q07113). Description: radioligand binding; competition of cold ligand (10^-12-10^-6 M) with [125I]-monoiodotyrosyl-Tyr2-IGF2 on R- cells; 16 h at 5 °C, 100 mM HEPES pH 7.6, 100 mM NaCl, 1 mM EDTA, 1% BSA; Kd of the tracer 8.2 nM.
For assay [13], the target named is His-tagged IGFBP3 (UniProt P17936). Description: radioligand binding; competition of cold ligand (10^-12-10^-6 M) with [125I]-monoiodotyrosyl-Tyr2-IGF2 for His-tagged IGFBP3 immobilized on a 96-well plate via neutravidin and Ni-NTA iBodies; 16 h at 5 °C, 100 mM HEPES pH 7.6, 100 mM NaCl, 1% BSA.
Assay [14] addresses IGFBP3:ALS complex, preformed on immobilized His-tagged ALS (UniProt P35858). Description: radioligand binding; competition of cold ligand (10^-12-10^-6 M) with [125I]-monoiodotyrosyl-Tyr2-IGF2 for the IGFBP3:ALS complex immobilized through the His-tag of ALS; 16 h at 5 °C, 100 mM HEPES pH 7.6, 100 mM NaCl, 1% BSA; Kd of the tracer 5.9 nM.
Assay [15] addresses His-tagged IGFBP3 (UniProt P17936). Description: radioligand binding; saturation binding of 0-5 nM [125I]-monoiodotyrosyl-IGF2 to His-tagged IGFBP3 (25 ng/well) immobilized via neutravidin and Ni-NTA iBodies; 16 h at 5 °C, 100 mM HEPES pH 7.6, 100 mM NaCl, 1% BSA.
Assay [16] addresses mannose-6-phosphate/IGF2 receptor (M6P/IGF2R), native in R- cells (mouse (endogenous in R- cells)) (UniProt Q07113). Briefly: radioligand binding; saturation binding of 0-5 nM [125I]-monoiodotyrosyl-Tyr2-IGF2 to 14,000 R- cells per well; 16 h at 5 °C, 100 mM HEPES pH 7.6, 100 mM NaCl, 1% BSA; nonspecific binding with 10 µM unlabeled IGF2; one-site fit.
Assay [17] addresses IGFBP3:ALS complex, preformed on immobilized His-tagged ALS (UniProt P35858). Briefly: radioligand binding; saturation binding of 0-5 nM [125I]-monoiodotyrosyl-IGF2 to IGFBP3 (no His-tag, 25 ng/well) preformed in complex with His-tagged ALS (10 ng/well) immobilized via neutravidin and Ni-NTA iBodies; 16 h at 5 °C, 100 mM HEPES pH 7.6, 100 mM NaCl, 1% BSA.
For assay [18], the target named is His-tagged IGFBP3 (UniProt P17936). Briefly: radioligand binding; saturation binding of 0-5 nM [125I]-monoiodotyrosyl-Tyr2-IGF2 to His-tagged IGFBP3 immobilized on a 96-well plate via neutravidin and Ni-NTA iBodies; 16 h at 5 °C, 100 mM HEPES pH 7.6, 100 mM NaCl, 1% BSA; nonspecific binding with 10 µM unlabeled IGF2.

Chain of Domain-11 of human M6P/IGF2R (D11), C-terminally His-tagged (human) (P11717 41-2491): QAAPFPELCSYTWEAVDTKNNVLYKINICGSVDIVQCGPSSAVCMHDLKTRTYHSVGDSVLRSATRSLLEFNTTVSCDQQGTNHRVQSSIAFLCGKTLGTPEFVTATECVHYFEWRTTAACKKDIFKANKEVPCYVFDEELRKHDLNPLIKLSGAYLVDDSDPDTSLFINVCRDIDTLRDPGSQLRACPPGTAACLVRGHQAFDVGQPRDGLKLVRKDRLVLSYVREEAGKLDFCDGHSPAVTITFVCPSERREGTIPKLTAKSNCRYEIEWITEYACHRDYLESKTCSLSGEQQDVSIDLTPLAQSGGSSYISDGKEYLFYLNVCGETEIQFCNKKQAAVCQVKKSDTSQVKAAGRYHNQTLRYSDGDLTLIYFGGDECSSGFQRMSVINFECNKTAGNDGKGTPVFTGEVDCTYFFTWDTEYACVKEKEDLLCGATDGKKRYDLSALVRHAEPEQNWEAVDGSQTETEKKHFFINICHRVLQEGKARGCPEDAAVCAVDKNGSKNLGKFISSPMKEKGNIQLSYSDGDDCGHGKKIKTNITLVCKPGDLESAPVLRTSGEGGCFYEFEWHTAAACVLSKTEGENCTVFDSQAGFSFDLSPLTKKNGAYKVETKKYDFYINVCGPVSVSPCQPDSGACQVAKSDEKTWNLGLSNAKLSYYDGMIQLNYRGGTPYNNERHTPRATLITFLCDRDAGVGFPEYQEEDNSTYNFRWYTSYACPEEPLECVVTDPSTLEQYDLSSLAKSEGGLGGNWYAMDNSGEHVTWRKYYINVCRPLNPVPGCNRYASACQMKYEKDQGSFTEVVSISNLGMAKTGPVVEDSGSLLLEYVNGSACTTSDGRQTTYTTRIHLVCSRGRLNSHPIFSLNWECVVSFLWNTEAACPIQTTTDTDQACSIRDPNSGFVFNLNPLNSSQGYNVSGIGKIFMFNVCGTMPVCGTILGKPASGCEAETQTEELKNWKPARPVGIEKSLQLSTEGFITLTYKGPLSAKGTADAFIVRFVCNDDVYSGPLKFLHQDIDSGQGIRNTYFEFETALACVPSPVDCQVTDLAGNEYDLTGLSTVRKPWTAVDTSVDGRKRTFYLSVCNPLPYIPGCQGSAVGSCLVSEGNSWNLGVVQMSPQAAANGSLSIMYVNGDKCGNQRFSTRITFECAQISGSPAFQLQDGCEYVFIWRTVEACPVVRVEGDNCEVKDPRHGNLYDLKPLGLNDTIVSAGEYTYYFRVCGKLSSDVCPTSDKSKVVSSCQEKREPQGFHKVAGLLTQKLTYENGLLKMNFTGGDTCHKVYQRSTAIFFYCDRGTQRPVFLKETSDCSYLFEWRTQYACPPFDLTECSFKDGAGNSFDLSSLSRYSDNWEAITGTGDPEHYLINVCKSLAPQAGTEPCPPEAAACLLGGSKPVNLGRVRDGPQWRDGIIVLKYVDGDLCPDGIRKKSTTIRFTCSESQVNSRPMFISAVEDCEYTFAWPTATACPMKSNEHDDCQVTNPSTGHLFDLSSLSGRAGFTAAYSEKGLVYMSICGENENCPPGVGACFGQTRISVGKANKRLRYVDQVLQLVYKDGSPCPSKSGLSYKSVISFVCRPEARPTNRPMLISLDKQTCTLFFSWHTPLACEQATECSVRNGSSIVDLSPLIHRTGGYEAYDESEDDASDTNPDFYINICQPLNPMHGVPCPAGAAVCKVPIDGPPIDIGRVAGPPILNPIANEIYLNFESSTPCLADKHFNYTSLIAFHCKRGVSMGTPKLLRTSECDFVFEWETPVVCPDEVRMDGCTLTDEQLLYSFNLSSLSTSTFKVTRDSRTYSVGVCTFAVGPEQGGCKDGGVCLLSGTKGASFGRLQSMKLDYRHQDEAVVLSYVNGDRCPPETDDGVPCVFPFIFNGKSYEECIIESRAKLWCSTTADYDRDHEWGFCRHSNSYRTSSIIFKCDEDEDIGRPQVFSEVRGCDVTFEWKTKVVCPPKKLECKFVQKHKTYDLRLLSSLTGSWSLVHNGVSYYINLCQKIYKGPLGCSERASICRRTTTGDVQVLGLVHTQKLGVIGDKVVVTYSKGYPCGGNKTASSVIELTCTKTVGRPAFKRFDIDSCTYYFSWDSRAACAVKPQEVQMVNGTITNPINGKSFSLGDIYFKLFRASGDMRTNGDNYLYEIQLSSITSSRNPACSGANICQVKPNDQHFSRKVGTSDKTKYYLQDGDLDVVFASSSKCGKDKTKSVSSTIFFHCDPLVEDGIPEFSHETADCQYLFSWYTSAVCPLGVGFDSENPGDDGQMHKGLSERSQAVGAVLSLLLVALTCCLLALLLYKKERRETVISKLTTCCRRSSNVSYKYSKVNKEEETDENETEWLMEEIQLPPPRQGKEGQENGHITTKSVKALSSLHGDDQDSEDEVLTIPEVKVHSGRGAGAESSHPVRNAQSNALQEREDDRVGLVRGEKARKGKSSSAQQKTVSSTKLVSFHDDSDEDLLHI
Chain of IGFBP3:ALS complex, preformed on immobilized His-tagged ALS (P35858 28-605, chain 1 of 2): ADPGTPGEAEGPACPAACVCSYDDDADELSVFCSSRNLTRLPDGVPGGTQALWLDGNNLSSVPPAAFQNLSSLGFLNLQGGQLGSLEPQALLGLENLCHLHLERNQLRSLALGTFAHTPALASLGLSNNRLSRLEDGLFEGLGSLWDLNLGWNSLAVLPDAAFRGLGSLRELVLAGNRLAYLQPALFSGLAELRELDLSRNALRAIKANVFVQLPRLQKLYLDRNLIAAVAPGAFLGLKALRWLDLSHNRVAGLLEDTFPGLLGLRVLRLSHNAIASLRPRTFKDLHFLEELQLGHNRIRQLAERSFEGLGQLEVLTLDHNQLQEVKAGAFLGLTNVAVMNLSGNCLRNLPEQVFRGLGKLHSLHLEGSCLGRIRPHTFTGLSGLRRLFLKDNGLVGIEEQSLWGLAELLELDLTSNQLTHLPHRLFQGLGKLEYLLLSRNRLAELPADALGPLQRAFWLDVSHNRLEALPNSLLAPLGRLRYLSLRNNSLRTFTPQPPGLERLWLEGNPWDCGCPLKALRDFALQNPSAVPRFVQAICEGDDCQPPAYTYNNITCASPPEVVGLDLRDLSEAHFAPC
Chain of IGFBP3:ALS complex, preformed on immobilized His-tagged ALS (P17936 28-291, chain 2 of 2, further chain): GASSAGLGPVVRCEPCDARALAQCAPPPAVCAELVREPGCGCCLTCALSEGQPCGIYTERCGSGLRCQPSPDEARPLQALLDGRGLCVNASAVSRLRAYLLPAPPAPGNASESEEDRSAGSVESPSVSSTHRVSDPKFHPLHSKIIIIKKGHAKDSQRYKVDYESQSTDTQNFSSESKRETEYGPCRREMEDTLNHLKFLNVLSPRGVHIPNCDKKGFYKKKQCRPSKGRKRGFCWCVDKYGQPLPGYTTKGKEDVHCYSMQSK
Chain of His-tagged IGFBP3 (P17936 28-291): as the sequence (P17936 28-291, chain 2 of 2, further chain) above
Chain of Domain-11 of human M6P/IGF2R (D11) (human) (P11717 1514-1648): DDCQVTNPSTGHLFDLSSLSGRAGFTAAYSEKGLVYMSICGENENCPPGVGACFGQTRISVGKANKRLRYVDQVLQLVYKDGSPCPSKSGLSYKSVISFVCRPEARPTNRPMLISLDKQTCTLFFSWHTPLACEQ

Turning to big-IGF2(87) (ligand), the relative binding affinity (% of IGF2) in assay [1] worked out at 73%; in assay [5], 227%; in [6] it was 58%; with His-tagged IGFBP3 [7], 70%. Moreover, the relative binding affinity (% of IGF1) in assay [2] was found to be 14.8%. Also, the relative binding affinity (% of human insulin) stood at 7.1% in [3] and 2.7% in assay [4].

For big-IGF2(104) (ligand), the relative binding affinity (% of IGF2) came out at 698% in [1], 887% in assay [5], 17% in assay [6] and 146% in the assay with His-tagged IGFBP3 [7]. The substance also displayed a relative binding affinity (% of IGF1) in assay [2] of 9.7%. Also, the relative binding affinity (% of human insulin) in [3] amounted to 9.8%; in assay [4], 2.9%.

For the substance big-IGF2(87), non-glycosylated (ligand), the dissociation constant (Kd) in [8] worked out at 1.77 nM; in assay [9], 3.82 nM; in [10], 1.6 nM; in [11], 9.47 nM; in assay [12] it was 0.56 nM; in the assay with His-tagged IGFBP3 [13], 0.29 nM. In assay [14], this substance yielded a dissociation constant Kd of 1.63 nM.

In the case of “[^125I]-monoiodotyrosyl-Tyr2-IGF2 (ligand)”, the figures for the Kd (in the assay with His-tagged IGFBP3 [15]; in assay [16]; in assay [17]) were 0.56 nM, 8.2 nM and 5.9 nM, respectively.

“pro-IGF2(156), non-glycosylated (from UniProt P01344 25-180) (ligand)” yielded a Kd in assay [8] of 2.31 nM. That is a single-digit nanomolar value.

“big-IGF2(104), non-glycosylated (ligand)”: the dissociation constant Kd in assay [8] is 0.19 nM; in assay [9], 2.75 nM; in assay [10], 2.48 nM; in assay [11] it was 8.83 nM; in assay [12] it was 0.14 nM; in the assay with His-tagged IGFBP3 [13] it was 0.14 nM. The dissociation constant Kd in assay [14] was 5.58 nM.

In the assay with His-tagged IGFBP3 [18], “[125I]-monoiodotyrosyl-Tyr2-IGF2 (ligand)” yielded a Kd of 0.59 nM.

For the substance “Insulin-like Growth Factor-2 (IGF2), native mature 67-amino-acid protein (from UniProt P01344 25-91) (ligand)”, the Kd in [8] turned out to be 1.29 nM. This counts as single-digit nanomolar.

The Kd is the free concentration of one partner at which half of the binding sites on the other are occupied at equilibrium, for simple one-to-one binding.
